The text below walks through data of the supplement of paper PMC10065799, “High-throughput profiling of sequence recognition by tyrosine kinases and SH2 domains using bacterial peptide display” (eLife, 2023).

In one data set the target is Grb2 SH2 (UniProt P62993). Nature of the data set: SH2 binding enrichment of the phosphorylated peptide, bacterial display (enrichment ratio); higher = better substrate or ligand; peptides without Tyr show the background.
The target of a further data set is c-Src SH2. Described as above.
The target in a further data set is SHP2-C SH2. The description is as above.
The next data set relates to c-Src. Nature of the data set: phosphorylation enrichment, bacterial display (enrichment ratio); higher = better substrate or ligand; peptides without Tyr show the background.
For a further data set, the target named is MERTK (UniProt Q12866). The data set is described as above.
Chain of MERTK (Q12866 whole entry, looked up): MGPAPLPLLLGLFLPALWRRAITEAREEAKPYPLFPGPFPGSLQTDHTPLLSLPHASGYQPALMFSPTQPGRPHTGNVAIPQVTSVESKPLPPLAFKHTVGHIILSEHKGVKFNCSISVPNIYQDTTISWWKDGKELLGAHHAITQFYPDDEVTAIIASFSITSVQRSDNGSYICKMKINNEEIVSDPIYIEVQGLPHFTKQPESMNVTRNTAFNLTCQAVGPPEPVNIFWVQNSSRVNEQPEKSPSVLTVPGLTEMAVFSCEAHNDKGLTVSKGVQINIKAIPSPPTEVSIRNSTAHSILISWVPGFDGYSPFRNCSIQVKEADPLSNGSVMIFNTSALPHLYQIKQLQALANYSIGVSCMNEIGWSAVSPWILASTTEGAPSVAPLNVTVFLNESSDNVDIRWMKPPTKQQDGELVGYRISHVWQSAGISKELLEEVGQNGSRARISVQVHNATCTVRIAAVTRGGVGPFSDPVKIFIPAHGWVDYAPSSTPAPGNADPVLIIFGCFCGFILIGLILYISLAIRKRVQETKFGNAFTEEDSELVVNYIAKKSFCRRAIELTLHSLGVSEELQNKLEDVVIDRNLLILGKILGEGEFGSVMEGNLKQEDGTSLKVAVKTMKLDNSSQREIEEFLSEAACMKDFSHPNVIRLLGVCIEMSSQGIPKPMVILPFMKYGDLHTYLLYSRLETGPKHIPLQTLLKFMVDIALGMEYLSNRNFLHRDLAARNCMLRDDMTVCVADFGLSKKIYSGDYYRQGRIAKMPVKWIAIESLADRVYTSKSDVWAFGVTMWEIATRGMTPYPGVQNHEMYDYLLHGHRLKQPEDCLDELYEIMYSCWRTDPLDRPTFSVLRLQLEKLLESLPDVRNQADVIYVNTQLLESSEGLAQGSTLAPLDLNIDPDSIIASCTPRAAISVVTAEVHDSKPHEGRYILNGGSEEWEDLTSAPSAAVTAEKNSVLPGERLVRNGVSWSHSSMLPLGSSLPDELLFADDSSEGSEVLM
Another data set concerns the target Jak2 (UniProt O60674). Described as above.
A further data set has as its target Fes (UniProt P07332). The description is as above.
In another data set the test system is c-Abl (mouse). The description is as above.
The target in a further data set is Fyn (UniProt P06241). The description is as above.
A further data set concerns the target Hck (UniProt P08631). The data set is described as above.
A further data set deals with EPHB2 (UniProt P29323). The description is as above.
Chain of EPHB2 (P29323 whole entry, looked up): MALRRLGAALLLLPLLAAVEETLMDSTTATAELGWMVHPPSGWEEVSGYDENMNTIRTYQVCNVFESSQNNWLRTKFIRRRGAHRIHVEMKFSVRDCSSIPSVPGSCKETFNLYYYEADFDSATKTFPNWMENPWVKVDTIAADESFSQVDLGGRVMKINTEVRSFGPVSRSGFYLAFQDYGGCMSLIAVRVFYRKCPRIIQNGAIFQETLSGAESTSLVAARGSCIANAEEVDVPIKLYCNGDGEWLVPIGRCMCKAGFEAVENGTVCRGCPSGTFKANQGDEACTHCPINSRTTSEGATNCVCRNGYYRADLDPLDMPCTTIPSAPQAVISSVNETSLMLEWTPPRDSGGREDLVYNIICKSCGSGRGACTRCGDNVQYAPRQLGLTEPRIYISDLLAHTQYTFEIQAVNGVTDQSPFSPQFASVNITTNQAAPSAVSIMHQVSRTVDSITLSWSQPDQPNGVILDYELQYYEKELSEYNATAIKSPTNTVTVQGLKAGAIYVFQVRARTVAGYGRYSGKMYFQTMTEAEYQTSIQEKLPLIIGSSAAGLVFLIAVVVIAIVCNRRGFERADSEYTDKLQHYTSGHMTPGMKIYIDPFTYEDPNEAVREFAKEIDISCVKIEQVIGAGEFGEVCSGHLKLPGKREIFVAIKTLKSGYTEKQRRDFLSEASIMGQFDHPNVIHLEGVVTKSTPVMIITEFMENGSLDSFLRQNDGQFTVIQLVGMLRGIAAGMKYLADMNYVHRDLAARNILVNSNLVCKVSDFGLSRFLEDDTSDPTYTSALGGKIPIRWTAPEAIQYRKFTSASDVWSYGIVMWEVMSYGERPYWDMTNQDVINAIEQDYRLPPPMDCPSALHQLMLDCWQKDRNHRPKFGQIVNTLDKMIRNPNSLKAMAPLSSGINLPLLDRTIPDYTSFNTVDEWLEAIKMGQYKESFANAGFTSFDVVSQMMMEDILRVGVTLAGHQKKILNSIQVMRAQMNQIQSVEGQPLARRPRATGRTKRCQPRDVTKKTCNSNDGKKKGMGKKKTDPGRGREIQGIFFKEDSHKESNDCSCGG
The target of another data set is EPHB1 (UniProt P54762). The description is as above.
Chain of EPHB1 (P54762 whole entry, looked up): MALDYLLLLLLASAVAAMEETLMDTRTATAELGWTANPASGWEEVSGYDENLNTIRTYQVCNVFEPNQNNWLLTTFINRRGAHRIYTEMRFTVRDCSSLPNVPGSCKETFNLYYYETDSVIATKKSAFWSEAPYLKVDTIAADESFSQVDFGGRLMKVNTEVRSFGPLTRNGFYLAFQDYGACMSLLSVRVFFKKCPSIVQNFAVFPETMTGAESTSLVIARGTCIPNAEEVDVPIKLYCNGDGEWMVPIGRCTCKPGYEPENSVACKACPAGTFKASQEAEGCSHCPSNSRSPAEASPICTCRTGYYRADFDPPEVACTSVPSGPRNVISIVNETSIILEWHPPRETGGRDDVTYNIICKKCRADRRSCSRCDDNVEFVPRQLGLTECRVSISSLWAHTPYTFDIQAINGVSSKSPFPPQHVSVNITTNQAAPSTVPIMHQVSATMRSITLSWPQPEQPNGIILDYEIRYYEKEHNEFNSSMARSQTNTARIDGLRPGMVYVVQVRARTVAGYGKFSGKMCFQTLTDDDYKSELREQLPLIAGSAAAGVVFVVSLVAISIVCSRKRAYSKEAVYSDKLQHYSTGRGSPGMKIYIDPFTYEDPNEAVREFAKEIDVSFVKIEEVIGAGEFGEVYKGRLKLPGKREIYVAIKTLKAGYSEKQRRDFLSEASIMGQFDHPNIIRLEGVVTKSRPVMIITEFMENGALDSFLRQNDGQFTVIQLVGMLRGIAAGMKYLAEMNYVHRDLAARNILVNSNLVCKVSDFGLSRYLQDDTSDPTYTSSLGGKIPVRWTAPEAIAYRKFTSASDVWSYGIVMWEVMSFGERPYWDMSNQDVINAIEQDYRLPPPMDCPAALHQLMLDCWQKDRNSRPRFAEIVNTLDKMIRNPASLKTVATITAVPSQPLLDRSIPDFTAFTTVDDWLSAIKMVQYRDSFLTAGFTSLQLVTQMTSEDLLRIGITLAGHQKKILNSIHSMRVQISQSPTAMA
The target of a further data set is FGFR1 (UniProt P11362). The data set is described as above.
In a further data set the target is FGFR3 (UniProt P22607). The description is as above.
The next data set deals with Fer (mouse). The description is as above.
The subject of a further data set is AncSZ. The description is as above.
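Wherever SH2 binding enrichment of the phosphorylated peptide, bacterial display is given: peptide library displayed on the E. coli surface as eCPX fusions, selected cells deep-sequenced, score is each peptide's frequency after selection divided by its frequency in the input.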
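Wherever phosphorylation enrichment, bacterial display is given: 11-residue human phosphosite peptides and single-mutation variants displayed on the E. coli surface, counted by deep sequencing, each peptide's frequency after selection divided by its frequency in the unselected input library; frequency after pTyr selection over input frequency; kinase dosed for 20-30% of maximal phosphorylation in three min.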

Chain of Fes (P07332 whole entry, looked up): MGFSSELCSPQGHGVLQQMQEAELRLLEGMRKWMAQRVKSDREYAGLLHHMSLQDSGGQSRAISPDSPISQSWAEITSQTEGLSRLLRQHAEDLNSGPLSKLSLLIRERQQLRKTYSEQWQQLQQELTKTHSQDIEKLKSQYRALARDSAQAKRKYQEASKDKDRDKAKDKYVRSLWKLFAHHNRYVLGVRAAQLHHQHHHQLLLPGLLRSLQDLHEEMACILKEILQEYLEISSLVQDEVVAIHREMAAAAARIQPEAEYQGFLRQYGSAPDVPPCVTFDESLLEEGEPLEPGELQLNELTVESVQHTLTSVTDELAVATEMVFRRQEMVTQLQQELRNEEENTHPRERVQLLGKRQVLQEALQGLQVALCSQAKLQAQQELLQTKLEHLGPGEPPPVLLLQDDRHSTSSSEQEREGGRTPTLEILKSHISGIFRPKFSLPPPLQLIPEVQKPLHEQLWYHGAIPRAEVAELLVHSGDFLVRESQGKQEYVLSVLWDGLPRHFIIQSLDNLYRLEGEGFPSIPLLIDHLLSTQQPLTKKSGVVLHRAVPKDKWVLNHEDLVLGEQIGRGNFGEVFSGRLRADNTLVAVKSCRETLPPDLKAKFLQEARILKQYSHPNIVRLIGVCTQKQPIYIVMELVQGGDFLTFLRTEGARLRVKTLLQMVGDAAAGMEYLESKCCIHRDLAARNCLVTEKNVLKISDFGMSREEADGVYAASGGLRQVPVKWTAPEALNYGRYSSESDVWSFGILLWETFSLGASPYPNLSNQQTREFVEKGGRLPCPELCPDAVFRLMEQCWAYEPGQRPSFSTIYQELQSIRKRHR
Chain of Hck (P08631 whole entry, looked up): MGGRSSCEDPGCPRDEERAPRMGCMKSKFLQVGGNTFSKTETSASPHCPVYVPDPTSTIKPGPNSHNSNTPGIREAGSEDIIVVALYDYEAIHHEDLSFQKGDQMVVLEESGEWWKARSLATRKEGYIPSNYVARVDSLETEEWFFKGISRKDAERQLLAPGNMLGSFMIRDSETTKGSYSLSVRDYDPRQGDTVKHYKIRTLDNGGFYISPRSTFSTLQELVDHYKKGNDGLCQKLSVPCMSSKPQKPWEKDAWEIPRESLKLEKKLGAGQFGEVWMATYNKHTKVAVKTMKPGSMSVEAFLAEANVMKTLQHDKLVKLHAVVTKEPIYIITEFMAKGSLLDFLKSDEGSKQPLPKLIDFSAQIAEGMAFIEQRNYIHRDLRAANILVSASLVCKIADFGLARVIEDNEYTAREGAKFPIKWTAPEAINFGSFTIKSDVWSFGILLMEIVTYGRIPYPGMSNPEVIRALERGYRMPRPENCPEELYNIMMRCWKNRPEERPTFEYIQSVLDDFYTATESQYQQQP
Chain of Grb2 SH2 (P62993 whole entry, looked up): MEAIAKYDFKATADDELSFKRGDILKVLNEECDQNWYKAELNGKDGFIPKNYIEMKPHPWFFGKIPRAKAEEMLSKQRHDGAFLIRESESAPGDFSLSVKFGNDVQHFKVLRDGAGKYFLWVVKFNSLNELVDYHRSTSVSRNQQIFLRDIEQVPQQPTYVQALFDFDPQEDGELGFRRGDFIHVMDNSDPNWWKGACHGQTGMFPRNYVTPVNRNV

For QPAGNYSLSSV [ARFGAP3_Y473], the results for the SH2 binding enrichment in the data set with Grb2 SH2, with c-Src SH2 and in the data set with SHP2-C SH2 were 0.812, 0.486 and 1, respectively. The phosphorylation enrichment with c-Src was 0.798; in the data set with MERTK, 0.93; with Jak2 it was 0.874; with Fes, 0.946; in the data set with c-Abl (mouse), 0.996; in the data set with Fyn, 0.424. For the same sequence, the phosphorylation enrichment amounted to 0.715 with Hck; 0.638 in the data set with EPHB2; 0.866 in the data set with EPHB1; 0.414 in the data set with FGFR1; 0.75 in the data set with FGFR3; 0.623 with Fer (mouse). In addition, the phosphorylation enrichment in the data set on AncSZ was determined as 0.985.
In the case of QPDLLYDHIQP [TRRAP_Y862_F860L], the results for the SH2 binding enrichment in the data set with Grb2 SH2, in the data set with c-Src SH2 and with SHP2-C SH2 were 0.733, 0.832 and 0.517, respectively. In addition, the phosphorylation enrichment in the data set with c-Src came to 10.3; in the data set with MERTK, 14.4; with Jak2, 1.27; in the data set with Fes, 2.01; in the data set with c-Abl (mouse), 3.03; in the data set with Fyn, 13.5. For the same sequence, the phosphorylation enrichment worked out at 15.1 with Hck; 18.1 with EPHB2; 15.2 with EPHB1; 1.02 with FGFR1; 1.5 in the data set with FGFR3; 25 in the data set on Fer (mouse). Besides, the phosphorylation enrichment in the data set with AncSZ worked out at 3.04.
On to QQIFTYDSGIH [JUP_Y22_T19I_YF], for which the results for the SH2 binding enrichment in the data set with Grb2 SH2, with c-Src SH2 and with SHP2-C SH2 were 0.936, 0.653 and 0.793, respectively. Moreover, the phosphorylation enrichment came to 0.939 with c-Src; 0.901 in the data set with MERTK; 1.2 with Jak2; 1.32 in the data set with Fes; 1.14 in the data set with c-Abl (mouse); 0.897 with Fyn. Also, the phosphorylation enrichment with Hck is 0.833; with EPHB2, 0.991; with EPHB1 it was 0.967; in the data set with FGFR1 it was 0.784; with FGFR3, 1.09; in the data set with Fer (mouse), 0.653. Moreover, in the data set on AncSZ, the phosphorylation enrichment was 1.46.
Turning to QQPGPYDRPGA [HNRNPH2_Y210_R206Q], the SH2 binding enrichment with Grb2 SH2 turned out to be 0.905; in the data set with c-Src SH2, 0.857; in the data set with SHP2-C SH2, 0.689. Moreover, the phosphorylation enrichment amounted to 0.577 in the data set on c-Src; 0.599 in the data set with MERTK; 0.643 with Jak2; 1.39 in the data set with Fes; 0.567 in the data set with c-Abl (mouse); 0.565 with Fyn. For the same sequence, the phosphorylation enrichment in the data set with Hck turned out to be 0.662; with EPHB2, 0.493; with EPHB1 it was 0.528; in the data set with FGFR1 it was 0.66; with FGFR3 it was 0.619; in the data set with Fer (mouse) it was 0.551. Moreover, the phosphorylation enrichment in the data set with AncSZ came to 0.683.
On to QRDSSYFWEIE [RAF1_Y340_YF], for which the SH2 binding enrichment turned out to be 0.936 with Grb2 SH2, 0.98 in the data set with c-Src SH2 and 0.917 in the data set with SHP2-C SH2. The phosphorylation enrichment was determined as 0.712 with c-Src; 0.774 with MERTK; 3.31 in the data set with Jak2; 1.92 with Fes; 0.989 in the data set with c-Abl (mouse); 0.966 with Fyn. The phosphorylation enrichment in the data set with Hck worked out at 0.934; with EPHB2, 0.968; with EPHB1, 0.776; with FGFR1 it was 1.04; in the data set with FGFR3, 1.25; in the data set on Fer (mouse) it was 0.813. For the same sequence, the phosphorylation enrichment in the data set with AncSZ amounted to 2.48.
For the sequence QTENKYDSVSG [EIF2AK3_Y565], the results for the SH2 binding enrichment with Grb2 SH2, with c-Src SH2 and with SHP2-C SH2 were 0.839, 7.1 and 0.724, respectively. Also, the phosphorylation enrichment in the data set on c-Src was 0.467; with MERTK it was 0.615; with Jak2, 1.98; with Fes it was 1.13; in the data set on c-Abl (mouse), 0.56; with Fyn it was 0.604. Moreover, the phosphorylation enrichment turned out to be 0.783 in the data set with Hck; 0.561 in the data set with EPHB2; 0.407 with EPHB1; 0.912 in the data set with FGFR1; 0.64 with FGFR3; 0.384 with Fer (mouse). In the data set with AncSZ, the phosphorylation enrichment stood at 0.865.
As to QYQLKYSETPF [SIX6OS1_Y129], the SH2 binding enrichment in the data set with Grb2 SH2 was 0.868; with c-Src SH2 it was 0.607; with SHP2-C SH2, 0.598. The phosphorylation enrichment with c-Src was 0.519; with MERTK, 0.838; with Jak2, 0.7; with Fes it was 1.1; in the data set with c-Abl (mouse), 0.808; in the data set with Fyn, 0.591. Further, the phosphorylation enrichment was 0.722 in the data set with Hck; 0.907 in the data set with EPHB2; 0.743 in the data set with EPHB1; 0.598 with FGFR1; 0.769 with FGFR3; 0.43 in the data set on Fer (mouse). In addition, in the data set with AncSZ, the phosphorylation enrichment was 1.
For RAFRHYLLKQK [SCN2A_Y1919_R1918H_YF], the SH2 binding enrichment with Grb2 SH2 is 0.939; with c-Src SH2, 0.468; with SHP2-C SH2, 0.439. Moreover, the phosphorylation enrichment amounted to 0.907 in the data set with c-Src; 0.97 in the data set with MERTK; 0.912 with Jak2; 1.59 with Fes; 1.48 in the data set with c-Abl (mouse); 1.16 with Fyn. The phosphorylation enrichment in the data set with Hck stood at 1.28; in the data set with EPHB2, 1.67; with EPHB1 it was 0.793; with FGFR1 it was 0.955; with FGFR3, 1.68; with Fer (mouse), 1.49. The phosphorylation enrichment in the data set on AncSZ amounted to 1.16.
